Measured values from patent publication US7138254.

Tested on: cytochrome C

biotin conjugated trypsin, sequence (P00760 24-246): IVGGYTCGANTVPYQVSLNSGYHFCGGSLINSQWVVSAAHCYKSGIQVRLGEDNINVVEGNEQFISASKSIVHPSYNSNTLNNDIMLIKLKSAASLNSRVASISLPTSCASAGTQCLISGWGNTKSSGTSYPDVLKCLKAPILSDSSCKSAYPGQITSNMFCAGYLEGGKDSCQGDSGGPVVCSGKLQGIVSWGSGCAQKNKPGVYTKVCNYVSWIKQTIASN
trypsin, sequence (P00760 24-246): as above

Substance: biotin conjugated trypsin
- peptide maps (capillary electrophoresis of FITC labeled digest), three runs over two weeks: all capillaries of the treated cassettes have the same peptide maps in the three runs
- peptide profiles of digested cytochrome C (capillary electrophoresis of FITC labeled digest): the peptide profiles of digested cytochrome C obtained from this approach and the approach described in Example 26 are consistent and reproducible

Substance: trypsin
- peptide maps (capillary electrophoresis of FITC labeled digest), three runs over two weeks: the control capillary cassette showed some protein digestion only in the first run, but no protein digestion in the second or the third run
- peptide profiles of digested cytochrome C (capillary electrophoresis of FITC labeled digest): The obtained peptide profiles of digested cytochrome C are consistent and reproducible between each run and comparable to data obtained with full volume reactions
